From patent US20160032259A1 (KOREA ADVANCED INSTITUTE OF SCIENCE AND TECHNOLOGY KAIST, published 2016) come the findings set out here.

What is called Kd is the free concentration of one partner at which half of the binding sites on the other are occupied at equilibrium, for simple one-to-one binding. Read a high Kd as lower affinity.

Substitutions are numbered along the chain they refer to.

To fix the notation:
B1: VEGF-Grab1 (Fc fusion)
chain: EFGRPFVEMYSEIPEIIHMYEGRELVIPCRVTSPNITVTLKKFPLDTLIPDGKRIIWDSRKGFIISNATYKEIGLLTCEATVNGHLYKTNYLTHRQTNTIIDVQISTPSPVTLLRGHTLVLNCTRTTPLNTRVQMTWSYPDEKNKRASVRRRIDQSNSHANIFYSVLTIDKMQNKDKGLYTCRVRSGPSFKSVNTSVHIYDKALEDKTHTCPPCPAPELLGGPSVFLFPPKPKDTLMISRTPEVTCVVVDVSHEDPEVKFNWYVDGVEVHNAKTKPREEQYNSTYRVVSVLTVLHQDWLNGKEYKCKVSNKALPAPIEKTISKAKGQPREPQVYTLPPSREEMTKNQVSLTCLVKGFYPSDIAVEWESNGQPENNYKYYPPVLDSDGSFFLYSKKTVDKSRWQQGNVFSCSVMHEALHNHYTQKSLSLSPGK
modifications: O-linked glycan (HexNAc1Hex1NeuAc1) at Ser135; N-glycans at Asn61, Asn93 and Asn308; no evidence of O-glycosylation at Thr138
notes: Produced in CHO cells, protein A purified; also called G1; VEGF-Grabs
B2: VEGF-Grab3 (Fc fusion)
chain: B1 chain with R146N
modifications: O-linked glycan (HexNAc1Hex1NeuAc1) at Ser135; N-glycans at Asn61, Asn93 and Asn308; mutated Asn172 not glycosylated; no evidence of O-glycosylation at Thr138
notes: Produced in CHO cells, protein A purified; also called G3; VEGF-Grabs
B3: hVEGF-A165 (ligand, human, UniProt P15692-4 27-191, looked up)
chain: APMAEGGGQNHHEVVKFMDVYQRSYCHPIETLVDIFQEYPDEIEYIFKPSCVPLMRCGGCCNDEGLECVPTEESNITMQIMRIKPHQGQHIGEMSFLQHNKCECRPKKDRARQENPCGPCSERRKHLFVQDPQTCKCSCKNTDSRCKARQLELNERTCRCDKPRR
notes: The cell assays name only 'VEGF-A' without the isoform
B4: PlGF (ligand)
chain: LPAVPPQQWALSAGNGSSEVEVVPFQEVWGRSYCRALERLVDVVSEYPSEVEHMFSPSCVSLLRCTGCCGDENLHCVPVETANVTMQLLKIRSGDRPSYVELTFSQHVRCECRHSPGRQSPDMPGDFRADA
B5: VEGF-Trap (Fc fusion, UniProt P17948 129-230, looked up, not shown: a dimerising Fc or GST)
chain: SDTGRPFVEMYSEIPEIIHMTEGRELVIPCRVTSPNITVTLKKFPLDTLIPDGKRIIWDSRKGFIISNATYKEIGLLTCEATVNGHLYKTNYLTHRQTNTIIDVVLSPSHGIELSVGEKLVLNCTARTELNVGIDFNWEYPSSKHQHKKLVNRDLKTQSGSEMKKFLSTLTIDGVTRSDQGLYTCAASSGLMTKKNSTFVRVHEK
modifications: N-glycans at Asn61, Asn93 and Asn328

In experiment [1] the target is B3. The experiment can be described thus: cell-based or functional assay.
Experiment [2] addresses B4. The experiment can be described thus: solid phase binding ELISA; PlGF coated, Fc fusion titrated, anti-human Fc-HRP. On the procedure: (§1) The binding affinities of VEGF-Grabs to ligands were measured by ELISA as described previously. Briefly, the MaxiSorp plates (Nunc) were coated with either hVEGF-A₁₆₅(150 ng/ml), PlGF (62.5 ng/ml), or hVEGF-B (125 ng/ml) and serially increasing amounts (0.1 nM-10 μM) of VEGF-Grabs or VEGF-Trap were added. After washing, the plates were incubated with HRP-conjugated goat anti-human Fc antibody. Then, 3,3′,5,5′-tetramethylbenzidine (TMB) solution (Sigma-Aldrich) was added and absorbance was measured by ELISA reader (BioRad) at 450 nm.
Background: In an ELISA, binding on a coated surface is turned into a signal by an enzyme label.

In experiment [3] the target is B3. As to the kind of experiment: solid phase binding ELISA; hVEGF-A165 coated, Fc fusion titrated, anti-human Fc-HRP. The method, then:
as §1

The target of experiment [4] is B3. The experiment can be described thus: solid phase binding ELISA; hVEGF-A165 coated; reference VT. On the procedure:
as §1

Experiment [5] concerns the target B4. The experiment can be described thus: solid phase binding ELISA; PlGF coated; reference VT. On the procedure:
as §1

Experiment [6] deals with B5. The experiment can be described thus: solid phase binding ELISA; hVEGF-A165 coated, Fc fusion titrated, anti-human Fc-HRP. The method, then: as §1
Experiment [7] deals with B5. The experiment can be described thus: solid phase binding ELISA; PlGF coated, Fc fusion titrated, anti-human Fc-HRP. The method, then: as §1

For the molecule B1, in experiment [1], the “IC50 of VEGF-A-induced proliferation of HUVECs” value (“IC50” below) was determined as 1.7 nM and the “fold more efficient than VT in inhibiting VEGF-A-induced proliferation of HUVECs” value is 2.8 fold. Besides, in experiment [2], the affinity, expressed as Kd, was 2.8 nM. For the same molecule, the Kd in experiment [3] stood at 0.79 nM. The “fold higher affinity than VT” value in experiment [4] turned out to be 1.1 fold. Also, the “fold more potent binding affinity than VT” value in experiment [5] was found to be 18.5 fold.
For the molecule B2, in experiment [1], the “IC50” value was found to be 2.4 nM and the “fold more efficient than VT in inhibiting VEGF-A-induced proliferation of HUVECs” value was 2 fold. Binding in experiment [2] was characterised by a dissociation constant (Kd) of 6.9 nM. The same molecule yielded a Kd in experiment [3] of 0.56 nM. Moreover, the “fold higher affinity than VT” value in experiment [4] worked out at 1.5 fold. Further, in experiment [5], the “fold more potent binding affinity than VT” value was determined as 6.7 fold.
On to B3, for which, in experiment [6], binding was characterised by a dissociation constant (Kd) of 0.84 nM.
Regarding B4, the Kd in experiment [7] was found to be 46 nM.
For B5, the “IC50” value in experiment [1] was 4.8 nM.
